Source: publication doi:10.1101/116491 (bioRxiv, 2017)

T1: OCP variant devoid of the N-terminal extension, orange fraction, ΔNTE(O) (Synechocystis, UniProt P74102 21-317)
T1 sequence: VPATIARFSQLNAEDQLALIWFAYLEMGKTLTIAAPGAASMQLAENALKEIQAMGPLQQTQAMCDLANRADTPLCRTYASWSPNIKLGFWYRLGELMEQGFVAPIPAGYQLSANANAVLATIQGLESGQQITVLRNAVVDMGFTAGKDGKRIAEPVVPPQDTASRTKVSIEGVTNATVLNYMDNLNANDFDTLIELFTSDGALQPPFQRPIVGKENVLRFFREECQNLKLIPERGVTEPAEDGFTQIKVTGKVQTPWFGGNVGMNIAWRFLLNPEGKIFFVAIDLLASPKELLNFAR

T2: Orange Carotenoid Protein, wildtype, His6-tagged, Synechocystis (OCP^WT) (Synechocystis, UniProt P74102 1-317)
T2 sequence: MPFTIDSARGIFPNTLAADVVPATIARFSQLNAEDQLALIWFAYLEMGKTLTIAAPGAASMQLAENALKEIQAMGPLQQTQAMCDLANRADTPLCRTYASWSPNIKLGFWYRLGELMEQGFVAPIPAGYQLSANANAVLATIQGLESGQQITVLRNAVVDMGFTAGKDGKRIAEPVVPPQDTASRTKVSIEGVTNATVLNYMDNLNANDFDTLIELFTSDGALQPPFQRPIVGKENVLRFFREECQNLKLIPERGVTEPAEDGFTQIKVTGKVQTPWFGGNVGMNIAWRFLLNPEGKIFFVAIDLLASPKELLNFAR

B1: Fluorescence Recovery Protein (FRP), His6-tagged, Synechocystis (natural protein)
chain: LQTAEAPWSQAETQSAHALFRKAYQRELDGLLATVQAQASQITQIDDLWKLHDFLSAKRHEIDGKYDDRQSVIIFVFAQLLKEGLVQAEELTFLAADKQSKIKALARL

Assays:
[1] = target: OCP variant devoid of the N-terminal extension, purple fraction, ΔNTE(P) (Synechocystis) (UniProt P74102); assay: SEC
[2] = target: T1, OCP variant devoid of the N-terminal …; assay: SEC
[3] = target: T2, Orange Carotenoid Protein, wildtype, …; assay: cross-linking
cross-linking = target: the molecule itself; assay: cross-linking

Molecule | stoichiometry N [1] | Kd [2] [nM] | stoichiometry N [2] | stoichiometry N [3] | stoichiometry N (cross-linking)
OCP variant devoid of the N-terminal extension, purple fraction, ΔNTE(P) (from UniProt P74102 21-317) (domain or fragment) | 2 |  |  |  | 
B1 |  | < 1000 | 1 | 1 | 2
